Source: patent US20230106247A1 (L AND L BIO CO LTD NINGBO CHINA, published 2023)
Read-outs that look alike come from different tables or passages of the source.

Experiments:
human Sirpα-V2-his = human Sirpα-V2-his (human); assay: ELISA
Description: (§1) Different antigens (recombinant proteins) such as the human Sirpα-V1-hFc, Sirpα-V1-his, Sirpα-V2-his, Sirpβ-his, Sirpγ-his, monkey Sirpα-his (cynoSirpα-his) or NOD-mSirpα-his described in Example 1 were diluted with a PBS buffer at pH7.4 to concentrations of 1 μg/mL, 2 μg/mL or 5 μg/mL, added into a 96-well ELISA plate (Corning, CLS3590-100EA) at a volume of 50 μL/well, and placed in an incubator at 37° C. for 2 hours. After the liquid was discarded, the wells were added with a blocking solution of 5% skimmed milk (skimmed milk powder available from Bright Dairy) diluted with PBS at 230 μL/well, and incubated in an incubator at 37° C. for 3 hours, or placed overnight at 4° C. (for 16-18 hours) for blocking. The blocking solution was discarded, and the plate was washed with a PBST buffer (pH7.4 PBS containing 0.05% Tween-20) for 5 times, then added with 50 μL/well of the supernatant (containing a detection antibody) or 10 μg/mL of the starting 5-fold gradient dilution of the antibody to be tested, and incubated at 37° C. for 1 hour. […] The plated was washed with PBST for 5 times, then added with 50 μL/well of TMB chromogenic substrate (KPL, Cat #: 52-00-03), incubated at room temperature for 10-15 min, added with 50 μL/well of 1 M H₂SO₄ to stop the reaction, and read by a […] Go microplate reader (ThermoFisher, Cat #: 51119200) for the absorbance value at 450 nm, and then a clone with high binding activity was selected or a EC₅₀ value was calculated according to the OD value.

Cyno Sirpα L937 = molecular target: T1, Cyno Sirpα L937 (cynomolgus); assay: ELISA
T1 construct: also called RB3-5; Cyno Sirpα polymorphism 4 (L937)
T1 chain: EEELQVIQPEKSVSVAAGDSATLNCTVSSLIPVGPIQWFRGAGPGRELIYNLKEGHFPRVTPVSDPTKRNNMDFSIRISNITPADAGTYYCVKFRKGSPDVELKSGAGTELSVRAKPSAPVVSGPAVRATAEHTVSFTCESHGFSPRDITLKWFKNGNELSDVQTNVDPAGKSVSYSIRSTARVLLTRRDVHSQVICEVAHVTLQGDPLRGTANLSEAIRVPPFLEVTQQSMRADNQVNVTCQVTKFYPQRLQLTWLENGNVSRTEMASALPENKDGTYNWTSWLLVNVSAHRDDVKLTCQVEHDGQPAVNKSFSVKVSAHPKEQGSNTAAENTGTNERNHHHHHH
Description: as §1

Cyno Sirpα L933 = molecular target: T2, Cyno Sirpα L933 (cynomolgus); assay: ELISA
T2 construct: extracellular domain; also called Cyno Sirpα polymorphism 2 (L933)
Description: as §1

human Sirpα-V1-his = molecular target: T3, human Sirpα-V1-his (human, UniProt P78324 31-373); assay: blocking ELISA, competitor CD47-hFc
T3 construct: range 31-373; Bought (Sino Biological 11612-H08H) or expressed in-house; also called hSirpα-V1; hSirpα-V1-his
Description: (§2) The recombinant proteins such as human Sirpα-V1-hFc/Sirpα-V1-his were diluted to concentrations of 5 μg/mL or 2 μg/mL respectively with a PBS buffer at pH 7.4, and then added into a 96-well ELISA plate (Corning, CLS3590-100EA) at a volume of 50 μL/well, and placed in an incubator at 37° C. for 2 hours. After the liquid was discarded, the wells were added with a blocking solution of 5% skimmed milk (skimmed milk powder available from Bright Dairy) diluted with PBS at 230 μL/well, and incubated in an incubator at 37° C. for 3 hours, or placed overnight at 4° C. (for 16-18 hours) for blocking. […] The plate was washed for 5 times, added with 50 μL/well of streptavidin-HRP (GenScript, M00091) or anti-his-HRP secondary antibody (GenScript, A00612) diluted at 1:1000, incubated at 37° C. for 1 hour, and then washed with PBST for 5 times. Each well was added with 50 μL of TMB (Surmodic, Cat #: TTMB-1000-01) for color development, and added with 50 μL/well of 1 M H₂SO₄ to stop the reaction. The readings on a microplate reader (MultiskanGO Thermo, Model 51119200) were subjected to data analysis by GraphPad prism 5.

human Sirpα-V1-hFc [1] = molecular target: T4, human Sirpα-V1-hFc (human, UniProt P78324 31-373); assay: blocking ELISA, competitor CD47-his
T4 construct: range 31-373; also called hSirpα (dimer); hSirpα-V1-hFc (dimer); not shown: human IgG1 Fc region at the C-terminus
Description: as §2

human Sirpα-V1-hFc [2] = molecular target: T4, human Sirpα-V1-hFc; assay: blocking ELISA, competitor CD47-his; remark: listed apart in the source
Description: The antigens PD-1 and Sirpα expressed according to the method of Example 1 were diluted with a PBS buffer at pH7.4 to a concentration of 2 μg/mL, added into a 96-well ELISA plate (Corning, CLS3590-100EA) at a volume of 50 μL/well, and incubated at 37° C. for 2 hours. After the liquid was discarded, the wells were added with a blocking solution of 5% skimmed milk (Sangon Biotech (Shanghai) Co., Ltd., A600669-0250) formulated with PBS at 200 μL/well, and incubated at 37° C. for 3 hours for blocking. […] The plate was washed with PBST for 5 times, added with 50 μL/well of HRP-labeled secondary antibody (GenScript Biotechnology Co., Ltd., M00091) diluted at 1:1000, and incubated at 37° C. for 1 hour. The plated was washed with PBST for 5 times, then added with 50 μl/well of TMB chromogenic substrate (KPL, 52-00-03), incubated at room temperature for 5-10 min, added with 50 μl/well of 1 M H₂SO₄ to stop the reaction, and read by a […] Go microplate reader (ThermoFisher, 51119200) for the absorbance value at 450 nm, and then IC₅₀ was calculated according to the OD value.

[3] = molecular target: T5, human Sirpα-V1 on CHO-K1 cells (CHO-K1 hSirpα+ cell line) (human, UniProt P78324 31-504); assay: cell ELISA on hSirpα-v1+ cell strain
T5 construct: whole, on cells; also called hSirpα-v1+ cell strain
From the text: The readings on a microplate reader (MultiskanGO Thermo, Model 51119200) were subjected to data analysis by GraphPad prism 5.

Chain of human Sirpα-V2-his (human) (chain, as listed by the source): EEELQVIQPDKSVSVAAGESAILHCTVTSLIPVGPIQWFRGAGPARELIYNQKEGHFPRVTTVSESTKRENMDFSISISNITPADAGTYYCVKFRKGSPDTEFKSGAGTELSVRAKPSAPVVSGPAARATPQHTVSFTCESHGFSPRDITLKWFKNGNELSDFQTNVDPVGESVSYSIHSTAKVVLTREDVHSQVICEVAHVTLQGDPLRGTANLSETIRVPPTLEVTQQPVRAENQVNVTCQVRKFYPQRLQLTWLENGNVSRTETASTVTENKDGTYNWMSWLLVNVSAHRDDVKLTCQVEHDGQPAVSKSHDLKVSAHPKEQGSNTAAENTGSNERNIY

EC50 (human Sirpα-V2-his): 0.094 nM
EC50 (Cyno Sirpα L937): 0.121 nM
EC50 (Cyno Sirpα L933): 0.159 nM
IC50 (human Sirpα-V1-his): 10.1 nM
IC50 (human Sirpα-V1-hFc [1]): 4.81 nM
IC50 (human Sirpα-V1-hFc [2]): 3.88 nM
EC50 [3]: 0.124 nM
B1: humanized antibody mab14-h16 (antibody, human IgG4 S228P, kappa, V domains shown)
VH: QVQLVQSGAEVKKPGASVKVSCKASGYNFNIYWINWVRQAPGQGLEWIGNIYPSSISTNYNEKFKTRATLTVDKSTSTVYMELSSLRSEDTAVYYCARSEGTYYGGRYEGDWFGYWGQGTLVTVSS
VL: DIQMTQSPSSLSASVGDRVTITCRASQDIRNYLNWYQQKPGKAPKLLIYFTSTLHSGVPSRFSGSGSGTDFTLTISSLQPEDFATYYCQQGNTLPWTFGGGTKVEIKR
notes: hIgG4, κ
